This note sets out measurements from patent US20210388110A1 (published 2021).

This assay has as its target T1, soluble human CD3ε chain (human, UniProt P07766 23-126, limits assumed).
T1 construct: the text says soluble human CD3ε chain; also called human CD3 epsilon chain
Put plainly: SPR (Biacore).

T1 sequence (P07766 23-126 limits assumed): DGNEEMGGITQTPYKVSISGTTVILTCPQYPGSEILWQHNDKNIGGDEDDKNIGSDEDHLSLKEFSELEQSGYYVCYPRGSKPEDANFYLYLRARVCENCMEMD

B1: TR01H071-E22Hh/none-Hi-Kn010G3/L0226-k0 (antibody, human IgG1, kappa, L234A L235A, N297A)
heavy: QVQLVESGGGLVQPGRSLRLSCAASGFTFSNAWMHWVRQAPGKGLEWVAQIKDKSNNYATYYAESVKGRFTISRADSKNSIYLQMNSLKTEDTAVYYCRYVHYAASYGVDIWGQGTTVTVSSASTKGPSVFPLAPSSKSTSGGTAALGCLVKDYFPEPVTVSWNSGALTSGVHTFPAVLQSSGLYSLSSVVTVPSSSLGTQTYICNVNHKPSNTKVDKKVEPKSCDKTHTCPPCPAPEAAGGPSVFLFPPKPKDTLMISRTPEVTCVVVDVSHEDPEVKFNWYVDGVEVHNAKTKPREEQYASTYRVVSVLTVLHQDWLNGKEYKCKVSNKALPAPIEKTISKAKGQPREPQVYTLPPSRCELTKNQVSLSCAVKGFYPSDIAVEWESNGQPENNYKTTPPVLDSDGSFFLVSKLTVDKSRWQQGNVFSCSVMHEALHNHYTQKSLSLSPDYKDDDDK
chain: EPKSSDKTHTCPPCPAPELLGGPSVFLFPPKPKDTLMISRTPEVTCVVVDVSHEDPEVKFNWYVDGVEVHNAKTKPREEQYNSTYRVVSVLTVLHQDWLNGKEYKCKVSNKALPAPIEKTISKAKGQPREPQVCTLPPSRDELTKNQVSLWCLVKGFYPSDIAVEWESNGQPENNYKTTPPVLDSDGSFFLYSKLTVDKSRWQQGNVFSCSVMHEALHNRYTQKSLSLSP
light: DIVMTQSPLSLPVTPGEPASISCRSSQSPVHSNRNTYIHWYQQKPGQAPRLLIYKVSNRFSGVPDRFSGSGSGTDFTLKISRVEAEDVGVYYCIQGTQVPYTFGQGTKLEIKRTVAAPSVFIFPPSDEQLKSGTASVVCLLNNFYPREAKVQWKVDNALQSGNSQESVTEQDSKDSTYSLSSTLTLSKADYEKHKVYACEVTHQGLSSPVTKSFNRGEC
notes: single-arm
Usually Kd stands for a measure of binding affinity in units of concentration. Read a high Kd as lower affinity. For the molecule B1, the dissociation constant (Kd) amounted to 25.1 nM.

B2: TR01H074-E22Hh/none-Hi-Kn010G3/L0000-k0 (antibody, human IgG1, kappa, L234A L235A, N297A)
heavy: QVQLVESGGGVVQPGGSLRLSCAASGFTFSNAWMHWVRQAPGKGLEWVAQIKDKSQNYATYYAESVKGRFTISRADSKNSIYLQMNSLKTEDTAVYYCRYVHYAASYGVDIWGQGTTVTVSSASTKGPSVFPLAPSSKSTSGGTAALGCLVKDYFPEPVTVSWNSGALTSGVHTFPAVLQSSGLYSLSSVVTVPSSSLGTQTYICNVNHKPSNTKVDKKVEPKSCDKTHTCPPCPAPEAAGGPSVFLFPPKPKDTLMISRTPEVTCVVVDVSHEDPEVKFNWYVDGVEVHNAKTKPREEQYASTYRVVSVLTVLHQDWLNGKEYKCKVSNKALPAPIEKTISKAKGQPREPQVYTLPPSRCELTKNQVSLSCAVKGFYPSDIAVEWESNGQPENNYKTTPPVLDSDGSFFLVSKLTVDKSRWQQGNVFSCSVMHEALHNHYTQKSLSLSPDYKDDDDK
chain: EPKSSDKTHTCPPCPAPELLGGPSVFLFPPKPKDTLMISRTPEVTCVVVDVSHEDPEVKFNWYVDGVEVHNAKTKPREEQYNSTYRVVSVLTVLHQDWLNGKEYKCKVSNKALPAPIEKTISKAKGQPREPQVCTLPPSRDELTKNQVSLWCLVKGFYPSDIAVEWESNGQPENNYKTTPPVLDSDGSFFLYSKLTVDKSRWQQGNVFSCSVMHEALHNRYTQKSLSLSP
light: DIVMTQSPLSLPVTPGEPASISCRSSQSLVHSNRNTYLHWYQQKPGQAPRLLIYKVSNRFSGVPDRFSGSGSGTDFTLKISRVEAEDVGVYYCGQGTQVPYTFGQGTKLEIKRTVAAPSVFIFPPSDEQLKSGTASVVCLLNNFYPREAKVQWKVDNALQSGNSQESVTEQDSKDSTYSLSSTLTLSKADYEKHKVYACEVTHQGLSSPVTKSFNRGEC
notes: single-arm
On to B2, for which the affinity, expressed as Kd, was 29.1 nM. The Kd values of the last two molecules are within 1.5-fold of each other.

B3: TR01H072-E22Hh/none-Hi-Kn010G3/L0000-k0 (antibody, human IgG1, kappa, L234A L235A, N297A)
heavy: QVQLVESGGGLVQPGRSLRLSCAASGFTFSNAWMHWVRQAPGKGLEWVAQIKDKSQNYATYYAESVKGRFTISRADSKNSIYLQMNSLKTEDTAVYYCRYVHYAASYGVDIWGQGTTVTVSSASTKGPSVFPLAPSSKSTSGGTAALGCLVKDYFPEPVTVSWNSGALTSGVHTFPAVLQSSGLYSLSSVVTVPSSSLGTQTYICNVNHKPSNTKVDKKVEPKSCDKTHTCPPCPAPEAAGGPSVFLFPPKPKDTLMISRTPEVTCVVVDVSHEDPEVKFNWYVDGVEVHNAKTKPREEQYASTYRVVSVLTVLHQDWLNGKEYKCKVSNKALPAPIEKTISKAKGQPREPQVYTLPPSRCELTKNQVSLSCAVKGFYPSDIAVEWESNGQPENNYKTTPPVLDSDGSFFLVSKLTVDKSRWQQGNVFSCSVMHEALHNHYTQKSLSLSPDYKDDDDK
chain: EPKSSDKTHTCPPCPAPELLGGPSVFLFPPKPKDTLMISRTPEVTCVVVDVSHEDPEVKFNWYVDGVEVHNAKTKPREEQYNSTYRVVSVLTVLHQDWLNGKEYKCKVSNKALPAPIEKTISKAKGQPREPQVCTLPPSRDELTKNQVSLWCLVKGFYPSDIAVEWESNGQPENNYKTTPPVLDSDGSFFLYSKLTVDKSRWQQGNVFSCSVMHEALHNRYTQKSLSLSP
light: DIVMTQSPLSLPVTPGEPASISCRSSQSLVHSNRNTYLHWYQQKPGQAPRLLIYKVSNRFSGVPDRFSGSGSGTDFTLKISRVEAEDVGVYYCGQGTQVPYTFGQGTKLEIKRTVAAPSVFIFPPSDEQLKSGTASVVCLLNNFYPREAKVQWKVDNALQSGNSQESVTEQDSKDSTYSLSSTLTLSKADYEKHKVYACEVTHQGLSSPVTKSFNRGEC
notes: single-arm
The molecule B3 showed an equilibrium dissociation constant (Kd) of 20.3 nM. The Kd values of the last two molecules are within 1.5-fold of each other.

B4: TR01H073-E22Hh/none-Hi-Kn010G3/L0000-k0 (antibody, human IgG1, kappa, L234A L235A, N297A)
heavy: QVQLVESGGGLVQPGRSLRLSCAASGFTFSNAWMHWVRQAPGKGLEWVAQIKDKSQNYATYYAESVKGRFTISRDDSKNSLYLQMNSLKTEDTAVYYCRYVHYAASYGVDIWGQGTTVTVSSASTKGPSVFPLAPSSKSTSGGTAALGCLVKDYFPEPVTVSWNSGALTSGVHTFPAVLQSSGLYSLSSVVTVPSSSLGTQTYICNVNHKPSNTKVDKKVEPKSCDKTHTCPPCPAPEAAGGPSVFLFPPKPKDTLMISRTPEVTCVVVDVSHEDPEVKFNWYVDGVEVHNAKTKPREEQYASTYRVVSVLTVLHQDWLNGKEYKCKVSNKALPAPIEKTISKAKGQPREPQVYTLPPSRCELTKNQVSLSCAVKGFYPSDIAVEWESNGQPENNYKTTPPVLDSDGSFFLVSKLTVDKSRWQQGNVFSCSVMHEALHNHYTQKSLSLSPDYKDDDDK
chain: EPKSSDKTHTCPPCPAPELLGGPSVFLFPPKPKDTLMISRTPEVTCVVVDVSHEDPEVKFNWYVDGVEVHNAKTKPREEQYNSTYRVVSVLTVLHQDWLNGKEYKCKVSNKALPAPIEKTISKAKGQPREPQVCTLPPSRDELTKNQVSLWCLVKGFYPSDIAVEWESNGQPENNYKTTPPVLDSDGSFFLYSKLTVDKSRWQQGNVFSCSVMHEALHNRYTQKSLSLSP
light: DIVMTQSPLSLPVTPGEPASISCRSSQSLVHSNRNTYLHWYQQKPGQAPRLLIYKVSNRFSGVPDRFSGSGSGTDFTLKISRVEAEDVGVYYCGQGTQVPYTFGQGTKLEIKRTVAAPSVFIFPPSDEQLKSGTASVVCLLNNFYPREAKVQWKVDNALQSGNSQESVTEQDSKDSTYSLSSTLTLSKADYEKHKVYACEVTHQGLSSPVTKSFNRGEC
notes: single-arm
In turn, B4 displayed a Kd of 59.7 nM.

B5: TR01H076-E22Hh/none-Hi-Kn010G3/L0000-k0 (antibody, human IgG1, kappa, L234A L235A, N297A)
heavy: QVQLVESGGGVVQPGGSLRLSCAASGFTFSNAWMHWVRQAPGKGLEWVAQIKDKSQNYATYYAESVKGRFTISRADSKNSIYLQMNSLKTEDTAVYYCRYVHYAASYGVDYWGQGTTVTVSSASTKGPSVFPLAPSSKSTSGGTAALGCLVKDYFPEPVTVSWNSGALTSGVHTFPAVLQSSGLYSLSSVVTVPSSSLGTQTYICNVNHKPSNTKVDKKVEPKSCDKTHTCPPCPAPEAAGGPSVFLFPPKPKDTLMISRTPEVTCVVVDVSHEDPEVKFNWYVDGVEVHNAKTKPREEQYASTYRVVSVLTVLHQDWLNGKEYKCKVSNKALPAPIEKTISKAKGQPREPQVYTLPPSRCELTKNQVSLSCAVKGFYPSDIAVEWESNGQPENNYKTTPPVLDSDGSFFLVSKLTVDKSRWQQGNVFSCSVMHEALHNHYTQKSLSLSPDYKDDDDK
chain: EPKSSDKTHTCPPCPAPELLGGPSVFLFPPKPKDTLMISRTPEVTCVVVDVSHEDPEVKFNWYVDGVEVHNAKTKPREEQYNSTYRVVSVLTVLHQDWLNGKEYKCKVSNKALPAPIEKTISKAKGQPREPQVCTLPPSRDELTKNQVSLWCLVKGFYPSDIAVEWESNGQPENNYKTTPPVLDSDGSFFLYSKLTVDKSRWQQGNVFSCSVMHEALHNRYTQKSLSLSP
light: DIVMTQSPLSLPVTPGEPASISCRSSQSLVHSNRNTYLHWYQQKPGQAPRLLIYKVSNRFSGVPDRFSGSGSGTDFTLKISRVEAEDVGVYYCGQGTQVPYTFGQGTKLEIKRTVAAPSVFIFPPSDEQLKSGTASVVCLLNNFYPREAKVQWKVDNALQSGNSQESVTEQDSKDSTYSLSSTLTLSKADYEKHKVYACEVTHQGLSSPVTKSFNRGEC
notes: single-arm
The molecule B5 registered a Kd of 47.8 nM. The Kd values of the last two molecules are within 1.5-fold of each other.

B6: TR01H081-E22Hh/none-Hi-Kn010G3/L0000-k0 (antibody, human IgG1, kappa, L234A L235A, N297A)
heavy: QVQLVESGGGLVQPGRSLRLSCAASGFTFSNAWMHWVRQAPGKGLEWVAQIKDKSQNYATYYAESVKGRFTISRADSKNSIYLQMNSLKTEDTAVYYCRYVHYAAGYGVDIWGQGTTVTVSSASTKGPSVFPLAPSSKSTSGGTAALGCLVKDYFPEPVTVSWNSGALTSGVHTFPAVLQSSGLYSLSSVVTVPSSSLGTQTYICNVNHKPSNTKVDKKVEPKSCDKTHTCPPCPAPEAAGGPSVFLFPPKPKDTLMISRTPEVTCVVVDVSHEDPEVKFNWYVDGVEVHNAKTKPREEQYASTYRVVSVLTVLHQDWLNGKEYKCKVSNKALPAPIEKTISKAKGQPREPQVYTLPPSRCELTKNQVSLSCAVKGFYPSDIAVEWESNGQPENNYKTTPPVLDSDGSFFLVSKLTVDKSRWQQGNVFSCSVMHEALHNHYTQKSLSLSPDYKDDDDK
chain: EPKSSDKTHTCPPCPAPELLGGPSVFLFPPKPKDTLMISRTPEVTCVVVDVSHEDPEVKFNWYVDGVEVHNAKTKPREEQYNSTYRVVSVLTVLHQDWLNGKEYKCKVSNKALPAPIEKTISKAKGQPREPQVCTLPPSRDELTKNQVSLWCLVKGFYPSDIAVEWESNGQPENNYKTTPPVLDSDGSFFLYSKLTVDKSRWQQGNVFSCSVMHEALHNRYTQKSLSLSP
light: DIVMTQSPLSLPVTPGEPASISCRSSQSLVHSNRNTYLHWYQQKPGQAPRLLIYKVSNRFSGVPDRFSGSGSGTDFTLKISRVEAEDVGVYYCGQGTQVPYTFGQGTKLEIKRTVAAPSVFIFPPSDEQLKSGTASVVCLLNNFYPREAKVQWKVDNALQSGNSQESVTEQDSKDSTYSLSSTLTLSKADYEKHKVYACEVTHQGLSSPVTKSFNRGEC
notes: single-arm
The molecule B6 yielded a Kd of 15.6 nM.
